Results reported in PMC7509555, “An In Vitro Study for Evaluating Permeability and Metabolism of Kurarinone” (Evidence-based Complementary and Alternative Medicine : eCAM, 2020).
Each block holds one molecule with its values, some of them ahead of it.

How the values were obtained:
Format in all cases: in vitro ADME, human
[1] = test system: HLMs; assay: Chemical inhibition study of kurarinone metabolism (P1 formation) in HLMs; details: kurarinone 20 μM in HLMs
Source text: HLMs were utilized as metabolic enzymes.

[2] = substrate: C=C(C)C(CC=C(C)C)Cc1c(O)cc(OC)c2c1O[C@H](c1ccc(O)cc1O)CC2=O; assay: Enzyme kinetics of P1 formation from kurarinone in recombinant CYP1A2; details: other: recombinant CYP1A2; kurarinone 1–200 μM; 37.0 °C
Experimental: (§1) Samples were prepared in a total volume of 200 μL, containing 0.3 mg/mL protein in human liver microsomes or 15 nM protein in recombinant human supersomes, probe substrates or 50 μM kurarinone, 10 mM MgCl2, 10 mM glucose-6-phosphate, and 1 unit/mL of glucose-6-phosphate dehydrogenase. The reactions were activated by adding NADPH following preincubation at 37°C for 5 min. The reactions were maintained at 37°C for 1 h and terminated by adding 200 μL ice-cold acetonitrile. The supernatant (10 μL) collected from the samples that were centrifuged (20,000 g, 20 min, 4°C) was injected into the HPLC system for analysis. Control incubations devoid of NADPH or kurarinone were performed parallelly to ensure that the produced metabolites were NADPH- or kurarinone-dependent.
(§2) Various concentrations of kurarinone (1–200 μM) were incubated with RLMs, MLMs, PLMs, RAMs, CYP1A2, and CYP2D6 to estimate kinetic parameters. The rest of the other conditions remained the same as described in Section 2.3. […] The apparent Km and Vmax values were calculated from nonlinear regression analysis of experimental data according to the Michaelis–Menten equation, and the results were represented graphically by Eadie–Hofstee plots. All incubations were carried out as triplicate independent experiments, and kinetic constants were recorded as mean ± SD.

[3] = substrate: C=C(C)C(CC=C(C)C)Cc1c(O)cc(OC)c2c1O[C@H](c1ccc(O)cc1O)CC2=O; assay: Enzyme kinetics of P1 formation from kurarinone in recombinant CYP2D6; details: other: recombinant CYP2D6; kurarinone 1–200 μM; 37.0 °C
Experimental: as §1, §2

effect of selective CYP inhibitor on formation of P1 from kurarinone [1]: remarkably inhibited
Molecule: Cc1nc2c([nH]1)c(=O)n(C)c(=O)n2Cc1ccco1 [furafylline]

B1: CYP1A2 (Homo sapiens) (protein)
chain: MALSQSVPFSATELLLASAIFCLVFWVLKGLRPRVPKGLKSPPEPWGWPLLGHVLTLGKNPHLALSRMSQRYGDVLQIRIGSTPVLVLSRLDTIRQALVRQGDDFKGRPDLYTSTLITDGQSLTFSTDSGPVWAARRRLAQNALNTFSIASDPASSSSCYLEEHVSKEAKALISRLQELMAGPGHFDPYNQVVVSVANVIGAMCFGQHFPESSDEMLSLVKNTHEFVETASSGNPLDFFPILRYLPNPALQRFKAFNQRFLWFLQKTVQEHYQDFDKNSVRDITGALFKHSKKGPRASGNLIPQEKIVNLVNDIFGAGFDTVTTAISWSLMYLVTKPEIQRKIQKELDTVIGRERRPRLSDRPQLPYLEAFILETFRHSSFLPFTIPHSTTRDTTLNGFYIPKKCCVFVNQWQVNHDPELWEDPSEFRPERFLTADGTAINKPLSEKMMLFGMGKRRCIGEVLAKWEIFLFLAILLQQLEFSVPPGVKVDLTPIYGLTMKHARCEHVQARLRFSIN
notes: purchased BD Gentest Corp. (Woburn, MA, USA)
Km [2]: 9.45 ± 2.11 µM
kcat [2]: 2.45 ± 0.25 μmol·min^−1·nmol^−1 CYP

B2: CYP2D6 (Homo sapiens) (protein)
chain: MGLEALVPLAVIVAIFLLLVDLMHRRQRWAARYPPGPLPLPGLGNLLHVDFQNTPYCFDQLRRRFGDVFSLQLAWTPVVVLNGLAAVREALVTHGEDTADRPPVPITQILGFGPRSQGVFLARYGPAWREQRRFSVSTLRNLGLGKKSLEQWVTEEAACLCAAFANHSGRPFRPNGLLDKAVSNVIASLTCGRRFEYDDPRFLRLLDLAQEGLKEESGFLREVLNAVPVLLHIPALAGKVLRFQKAFLTQLDELLTEHRMTWDPAQPPRDLTEAFLAEMEKAKGNPESSFNDENLRIVVADLFSAGMVTTSTTLAWGLLLMILHPDVQRRVQQEIDDVIGQVRRPEMGDQAHMPYTTAVIHEVQRFGDIVPLGVTHMTSRDIEVQGFRIPKGTTLITNLSSVLKDEAVWEKPFRFHPEHFLDAQGHFVKPEAFLPFSAGRRACLGEPLARMELFLFFTSLLQHFSFSVPTGQPRPSHHGVFAFLVSPSPYELCAVPR
notes: as for B1
Km [3]: 13.76 ± 3.09 µM
kcat [3]: 2.78 ± 0.36 μmol·min^−1·nmol^−1 CYP
